One may read the Kd as the free concentration of one partner at which half of the binding sites on the other are occupied at equilibrium, for simple one-to-one binding. Read a low Kd as tighter binding.

One assay deals with T1, eIF2 ternary complex (Saccharomyces cerevisiae, UniProt P20459).
T1 chain 1: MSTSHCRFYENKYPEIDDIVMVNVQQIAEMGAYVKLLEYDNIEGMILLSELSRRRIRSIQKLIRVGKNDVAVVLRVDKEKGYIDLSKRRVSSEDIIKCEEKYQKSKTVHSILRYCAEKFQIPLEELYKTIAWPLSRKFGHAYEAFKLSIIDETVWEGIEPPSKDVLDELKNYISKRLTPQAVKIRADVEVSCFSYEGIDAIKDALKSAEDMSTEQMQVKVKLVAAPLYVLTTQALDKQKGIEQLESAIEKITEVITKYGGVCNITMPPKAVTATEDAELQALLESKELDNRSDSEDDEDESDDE
T1 chain 2: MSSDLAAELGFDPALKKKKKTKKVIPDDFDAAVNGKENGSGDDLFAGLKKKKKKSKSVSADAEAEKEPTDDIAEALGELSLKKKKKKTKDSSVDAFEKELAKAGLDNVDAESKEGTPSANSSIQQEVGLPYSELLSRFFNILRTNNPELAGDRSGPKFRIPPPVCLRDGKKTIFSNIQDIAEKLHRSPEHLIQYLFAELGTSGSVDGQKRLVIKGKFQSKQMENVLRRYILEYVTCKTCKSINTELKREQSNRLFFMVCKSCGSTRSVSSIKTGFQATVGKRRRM
T1 chain 3: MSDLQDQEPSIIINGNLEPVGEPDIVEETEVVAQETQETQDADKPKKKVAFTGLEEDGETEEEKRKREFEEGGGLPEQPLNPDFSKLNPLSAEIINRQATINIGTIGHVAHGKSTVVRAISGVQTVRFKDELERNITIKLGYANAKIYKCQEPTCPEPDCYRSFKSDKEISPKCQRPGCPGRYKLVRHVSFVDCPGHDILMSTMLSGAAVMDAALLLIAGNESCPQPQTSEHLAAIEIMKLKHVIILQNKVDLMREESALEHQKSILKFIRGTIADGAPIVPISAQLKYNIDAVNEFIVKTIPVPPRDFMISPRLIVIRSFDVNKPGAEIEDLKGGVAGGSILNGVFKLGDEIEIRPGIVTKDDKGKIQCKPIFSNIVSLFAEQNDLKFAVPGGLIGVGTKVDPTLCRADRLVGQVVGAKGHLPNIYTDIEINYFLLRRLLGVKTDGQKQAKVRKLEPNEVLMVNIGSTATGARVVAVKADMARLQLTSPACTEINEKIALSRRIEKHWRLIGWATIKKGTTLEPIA

In assay [1] the target is human eIF5-CTD (carboxyl-terminal domain of eukaryotic initiation factor 5), wild type (human, UniProt P55010 225-407). The assay can be described thus: ITC. Background: ITC needs no label: the signal is the heat of the interaction.
A further assay has as its target T2, eIF2β K2K3 (Saccharomyces cerevisiae, UniProt P09064).
T2 chain: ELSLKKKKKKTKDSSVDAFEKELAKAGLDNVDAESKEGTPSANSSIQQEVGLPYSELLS
The assay can be described thus: ITC.

Chain of human eIF5-CTD (carboxyl-terminal domain of eukaryotic initiation factor 5), wild type (P55010 225-407): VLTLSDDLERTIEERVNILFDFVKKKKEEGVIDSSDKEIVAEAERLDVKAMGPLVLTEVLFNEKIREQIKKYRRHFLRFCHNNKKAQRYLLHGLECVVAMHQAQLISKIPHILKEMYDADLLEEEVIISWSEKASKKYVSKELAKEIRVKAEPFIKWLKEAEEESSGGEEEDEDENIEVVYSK

B1: eIF5 (protein)
chain: MSINICRDNHDPFYRYKMPPIQAKVEGRGNGIKTAVLNVADISHALNRPAPYIVKYFGFELGAQTSISVDKDRYLVNGVHEPAKLQDVLDGFINKFVLCGSCKNPETEIIITKDNDLVRDCKACGKRTPMDLRHKLSSFILKNPPDSVSGSKKKKKAATASANVRGGGLSISDIAQGKSQNAPSDGTGSSTPQHHDEDEDELSRQIKAAASTLEDIEVKDDEWAVDMSEEAIRARAKELEVNSELTQLDEYGEWILEQAGEDKENLPSDVELYKKAAELDVLNDPKIGCVLAQCLFDEDIVNEIAEHNAFFTKILVTPEYEKNFMGGIERFLGLEHKDLIPLLPKILVQLYNNDIISEEEIMRFGTKSSKKFVPKEVSKKVRRAAKPFITWLETAESDDDEEDDE
For the molecule B1, in the assay with eIF2 ternary complex, the Kd turned out to be 0.1 µM.

B2: eIF2β-K2K3 (eIF2β residues 53-135, with the K2 and K3 lysine boxes) (domain or fragment, UniProt P20042 53-135, looked up)
chain: DLEADEEDTRKKDASDDLDDLNFFNQKKKKKKTKKIFDIDEAEEGVKDLKIESDVQEPTEPEDDLDIMLGNKKKKKKNVKFPD
For B2, in assay [1], the Kd is roughly 4 µM.

B3: eIF5 CTD (protein)
chain: VNSELTQLDEYGEWILEQAGEDKENLPSDVELYKKAAELDVLNDPKIGCVLAQCLFDEDIVNEIAEHNAFFTKILVTPEYEKNFMGGIERFLGLEHKDLIPLLPKILVQLYNNDIISEEEIMRFGTKSSKKFVPKEVSKKVRRAAKPFITWLETAESDDDEEDDE
In the case of B3, in the assay with eIF2β K2K3, the Kd is roughly 4 µM.
